According to paper PMC11277083, “A Natural Bioactive Peptide from Pinctada fucata Pearls Can Be Used as a Potential Inhibitor of the Interaction between SARS-CoV-2 and ACE2 against COVID-19” (International Journal of Molecular Sciences, 2024):

Target: recombinant ACE2 protein (coated plate of the RayBio COVID-19 Spike ACE2 binding assay kit II) (UniProt P0DTC2)
Test: ELISA; […] ([…], in PBS), 2 h at room temperature; […]

Question: KKCH peptide was tested. Which IC50 did it give?
Answer: 413 µM
